Results from the supplement of paper PMC10126150.
± gives the standard deviation of the averaged measurements.

What follows are sequences tested on ATP (assay: switch fluorescence ratio, 500 uM ATP over buffer (Cy3 cluster intensity, sum of 5 cycles each) (fold (ratio)); higher = stronger signal-on switching upon ATP binding; sequences stand for … in TCGTCGGCAGCGTCAGATGTGTATAAGAGACAGTTTTTTTTTTTTTTTTTTTTTTTTT…TC). Conditions: aptamer strand: ATP DNA aptamer (quencher-CACCTGGGGGAGTATTGCGGAGGAAGG + anchor), 100 nM annealed; ATP concentration: 500 uM.
Method in brief: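 Exposure to 500 uM ATP lasted 15 min at 22 °C before imaging, and a selection-buffer image was taken beforehand, for Cy3-labelled switching-strand clusters on a modified Illumina MiSeq flow-cell annealed to 100 nM quencher-labelled ATP aptamer. Five buffer/ATP cycles were run with NaOH stripping and re-annealing between them. The fluorescence ratio per cluster is summed target-cycle over summed buffer-cycle Cy3 intensity, averaged per switch-domain sequence. Clusters outside 100-1000 RFU were excluded.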
TACGATAATC was tested, and the switch fluorescence ratio was 1.146 ± 0.011.
TACGATGGTT showed a switch fluorescence ratio of 0.989 ± 0.028.
Work on TACGATTTAT yielded a switch fluorescence ratio of 1.018 ± 0.0096.
Work on TACGCACATA yielded a switch fluorescence ratio of 1.48 ± 0.15.
For TACGCAGTAT, the switch fluorescence ratio was 1.15 ± 0.061.
Sequence TACGCCTGGT has a switch fluorescence ratio of 1.034 ± 0.0071.
TACGCTCTCA was tested, and the switch fluorescence ratio was 1.21 ± 0.23.
TACGGAGTCT showed a switch fluorescence ratio of 0.9814 ± 0.0075.
Work on TACGGATTAG yielded a switch fluorescence ratio of 1.051 ± 0.0051.
TACGGCAAAT showed a switch fluorescence ratio of 1.121 ± 0.01.
TACGGCAGGG showed a switch fluorescence ratio of 1.059 ± 0.0024.
In the case of TACGGGACTT, the switch fluorescence ratio is reported as 1.26 ± 0.033.
Work on TACGGGGAGT yielded a switch fluorescence ratio of 0.998 ± 0.026.
With TACGGGGGTC the switch fluorescence ratio was 1.02 ± 0.047.
In the case of TACGGGTAT, the switch fluorescence ratio is reported as 0.9977 ± 0.0024.
TACGGGTTTT showed a switch fluorescence ratio of 1.01 ± 0.039.
In the case of TACGGTACGG, the switch fluorescence ratio is reported as 1.18 ± 0.04.
In the case of TACGGTCGCG, the switch fluorescence ratio is reported as 0.9949 ± 0.0036.
TACGGTGGGG gave a switch fluorescence ratio of 1.01 ± 0.027.
TACGTATAAT showed a switch fluorescence ratio of 1.15 ± 0.015.
With TACGTATGGG the switch fluorescence ratio was 0.997 ± 0.021.
With TACGTGAATT the switch fluorescence ratio was 1.04 ± 0.05.
For TACGTGATTT, the switch fluorescence ratio was 1.14 ± 0.093.
In the case of TACGTGGGTT, the switch fluorescence ratio is reported as 0.994 ± 0.051.
In the case of TACGTTAGCT, the switch fluorescence ratio is reported as 1.119 ± 0.0018.
TACGTTCTGA gave a switch fluorescence ratio of 0.999 ± 0.049.
Work on TACTACCTGG yielded a switch fluorescence ratio of 1.3 ± 0.25.
TACTATACGT showed a switch fluorescence ratio of 1.276 ± 0.007.
Sequence TACTATGATT has a switch fluorescence ratio of 1.04 ± 0.018.
TACTATTATC was tested, and the switch fluorescence ratio was 1.0537 ± 0.00026.
TACTCAGTAT was tested, and the switch fluorescence ratio was 1.0208 ± 0.00084.
Sequence TACTCATTGC has a switch fluorescence ratio of 1.03 ± 0.067.
TACTCGAAAC gave a switch fluorescence ratio of 1.8 ± 0.97.
Sequence TACTCGGCCG has a switch fluorescence ratio of 1.02 ± 0.035.
With TACTCGGCTC the switch fluorescence ratio was 1.66 ± 0.11.
In the case of TACTCGGTTT, the switch fluorescence ratio is reported as 0.98 ± 0.014.
Work on TACTCTGTGT yielded a switch fluorescence ratio of 1.01 ± 0.014.
TACTGAGACA gave a switch fluorescence ratio of 1.074 ± 0.0066.
TACTGGAGGC gave a switch fluorescence ratio of 1.02 ± 0.043.
TACTGTCTTG showed a switch fluorescence ratio of 0.97 ± 0.014.
For TACTTACGAT, the switch fluorescence ratio was 1.37 ± 0.065.
TACTTCATCA showed a switch fluorescence ratio of 1.03 ± 0.02.
TACTTGGCCG showed a switch fluorescence ratio of 1.01 ± 0.052.
TACTTGTAAT gave a switch fluorescence ratio of 1.02 ± 0.055.
TACTTGTGTA showed a switch fluorescence ratio of 1.02 ± 0.014.
TACTTTTGAC was tested, and the switch fluorescence ratio was 1.04 ± 0.011.
In the case of TAGAAAAATT, the switch fluorescence ratio is reported as 0.993 ± 0.015.
TAGAAACGGG gave a switch fluorescence ratio of 1.02 ± 0.031.
With TAGAAAGATT the switch fluorescence ratio was 1.02 ± 0.016.
In the case of TAGAAATCGG, the switch fluorescence ratio is reported as 1.02 ± 0.015.
Work on TAGAAATTAA yielded a switch fluorescence ratio of 0.977 ± 0.019.
For TAGAAATTCG, the switch fluorescence ratio was 1.28 ± 0.5.
Sequence TAGAACAACT has a switch fluorescence ratio of 1.21 ± 0.34.
In the case of TAGAACCTCG, the switch fluorescence ratio is reported as 1.02 ± 0.057.
In the case of TAGAACTTCG, the switch fluorescence ratio is reported as 1.014 ± 0.0077.
In the case of TAGAAGGGAA, the switch fluorescence ratio is reported as 1.03 ± 0.063.
TAGAAGTATT was tested, and the switch fluorescence ratio was 1.01 ± 0.027.
For TAGAAGTGGT, the switch fluorescence ratio was 0.9963 ± 0.0084.
TAGAATAGGT gave a switch fluorescence ratio of 0.978 ± 0.011.
For TAGAATAGTC, the switch fluorescence ratio was 0.974 ± 0.01.
Sequence TAGAATATAG has a switch fluorescence ratio of 0.991 ± 0.0011.
For TAGAATCGCT, the switch fluorescence ratio was 1 ± 0.049.
For TAGAATGTTT, the switch fluorescence ratio was 1.02 ± 0.012.
TAGAATTGAG showed a switch fluorescence ratio of 0.984 ± 0.022.
In the case of TAGAATTGTG, the switch fluorescence ratio is reported as 1.21 ± 0.33.
TAGACAATTT showed a switch fluorescence ratio of 1 ± 0.00074.
For TAGACAGCCA, the switch fluorescence ratio was 1.02 ± 0.041.
For TAGACCTTAA, the switch fluorescence ratio was 1.09 ± 0.029.
TAGACGTTGG showed a switch fluorescence ratio of 1.02 ± 0.014.
Work on TAGAGAATAT yielded a switch fluorescence ratio of 0.992 ± 0.026.
TAGAGACCTG was tested, and the switch fluorescence ratio was 1 ± 0.071.
With TAGAGAGCTT the switch fluorescence ratio was 0.986 ± 0.036.
For TAGAGAGGGC, the switch fluorescence ratio was 1.011 ± 0.0093.
With TAGAGATGGG the switch fluorescence ratio was 1.02 ± 0.028.
With TAGAGATTAG the switch fluorescence ratio was 1 ± 0.038.
TAGAGCGGGA showed a switch fluorescence ratio of 1.008 ± 0.0087.
In the case of TAGAGCGTAT, the switch fluorescence ratio is reported as 1 ± 0.033.
In the case of TAGAGCTAC, the switch fluorescence ratio is reported as 1.17 ± 0.049.
TAGAGGAAGC gave a switch fluorescence ratio of 1 ± 0.011.
Sequence TAGAGGACGA has a switch fluorescence ratio of 1.04 ± 0.063.
TAGAGGAGCT showed a switch fluorescence ratio of 1 ± 0.038.
Sequence TAGAGGCGGG has a switch fluorescence ratio of 0.981 ± 0.025.
In the case of TAGAGGGGAG, the switch fluorescence ratio is reported as 1.02 ± 0.022.
TAGAGGGTAC was tested, and the switch fluorescence ratio was 1.19 ± 0.24.
In the case of TAGAGGTG, the switch fluorescence ratio is reported as 1.11 ± 0.016.
For TAGAGTATCT, the switch fluorescence ratio was 0.999 ± 0.027.
Sequence TAGATAGTTT has a switch fluorescence ratio of 0.981 ± 0.029.
TAGATCTGGG showed a switch fluorescence ratio of 1.002 ± 0.0072.
In the case of TAGATGAGGC, the switch fluorescence ratio is reported as 1.01 ± 0.061.
Work on TAGATGCAGT yielded a switch fluorescence ratio of 1.04 ± 0.042.
For TAGATTTATT, the switch fluorescence ratio was 0.995 ± 0.028.
TAGATTTGAT was tested, and the switch fluorescence ratio was 0.9664 ± 0.0028.
TAGATTTGTA showed a switch fluorescence ratio of 1.01 ± 0.021.
TAGCACGGCA showed a switch fluorescence ratio of 1.06 ± 0.029.
TAGCACTGAG gave a switch fluorescence ratio of 1.05 ± 0.043.
TAGCAGGTGG was tested, and the switch fluorescence ratio was 1.15 ± 0.14.
TAGCCGGCGT was tested, and the switch fluorescence ratio was 1.01 ± 0.013.
Work on TAGCCGGGAC yielded a switch fluorescence ratio of 1.25 ± 0.26.
In the case of TAGCCGGTCG, the switch fluorescence ratio is reported as 0.9846 ± 0.0023.
With TAGCCGTCTG the switch fluorescence ratio was 1.04 ± 0.039.
